Data from publication PMC9889658, “The structure of MadC from Clostridium maddingley reveals new insights into class I lanthipeptide cyclases” (Frontiers in Microbiology, 2022).

Experiments:
Settings in all cases: both partners purified
[1] = biological target: T1, MadC (lanthionine cyclase of Clostridium sp. maddingley), His6-tag cleaved off (Clostridium sp. maddingley); assay: ITC; MadC (200–600 μM) in the syringe, 20 injections of 2 μl into the cell with the leader variant (20–60 μM); 25°C; 50 mM HEPES, 500 mM NaCl, pH 7.5; at least triplicate
T1 construct: MadC, class I lanthipeptide cyclase, Clostridium sp. maddingley, NCBI EKQ50560.1, synthetic gene from GenScript in pET28b(+); calculated molecular weight 49.71 kDa; also called cleaved MadC; class I cyclase MadC; not shown: His6, N-terminal, cleaved

[2] = biological target: T1, MadC (lanthionine cyclase of …); assay: as above; remark: listed apart in the source
[3] = biological target: T2, His6-MadC (hexa-histidine tagged cyclase MadC, wild type) (Clostridium sp. maddingley); assay: SPR; His6-MadC variant captured on a poly-NTA (Ni2+) chip to 400–500 RU; L3 injected at 180 nM to 30 μM; 200 mM NaCl, 50 mM HEPES/NaOH pH 8; affinity from the maximum RU values
T2 construct: MadC, class I lanthipeptide cyclase, Clostridium sp. maddingley, NCBI EKQ50560.1, in pET28b(+) with N-terminal His6-tag and thrombin cleavage site; Thrombin cleavage site between the tag and MadC; Captured by the His-tag on the Ni-NTA chip in SPR; also the crystallised form (PDB 8BYK); also called wild-type MadC; not shown: His6, N-terminal, kept

B1: maddinglicin leader peptide construct madL1, Leader 1 (−23 – −1) (peptide)
chain: MGKLDDFDLDVKVKADTTKVGPA
Question: Which Kd [1] does the source give for B1 here?
Answer: 10.4 µM

Question: What about the Kd [2] of the same binder?
Answer: 10.5 ± 4.3 µM

B2: maddinglicin leader peptide construct madL2, Leader 2 (−23 − +5) (peptide)
chain: MGKLDDFDLDVKVKADTTKVGPAITSKS
Question: B2 was tested. Which Kd [1] did it give?
Answer: 9.35 µM

B3: maddinglicin leader peptide construct madL3, Leader 3 (−23 − +10) (peptide)
chain: MGKLDDFDLDVKVKADTTKVGPAITSKSLCTPG
modifications: synthetic, unmodified peptide (no lanthionine rings); MadA 1-33 from Table S4
Question: Which results are given for B3?
Answer: Kd [1]: 5.69 µM; Kd [3]: 16 ± 7 µM
